# Assay results reported in publication PMC6914368 (Nature, 2019).
# T1: EccC3 with C-terminal His-tag (Mycobacterium smegmatis, UniProt A0QQ40 1-1325)
# T1 sequence: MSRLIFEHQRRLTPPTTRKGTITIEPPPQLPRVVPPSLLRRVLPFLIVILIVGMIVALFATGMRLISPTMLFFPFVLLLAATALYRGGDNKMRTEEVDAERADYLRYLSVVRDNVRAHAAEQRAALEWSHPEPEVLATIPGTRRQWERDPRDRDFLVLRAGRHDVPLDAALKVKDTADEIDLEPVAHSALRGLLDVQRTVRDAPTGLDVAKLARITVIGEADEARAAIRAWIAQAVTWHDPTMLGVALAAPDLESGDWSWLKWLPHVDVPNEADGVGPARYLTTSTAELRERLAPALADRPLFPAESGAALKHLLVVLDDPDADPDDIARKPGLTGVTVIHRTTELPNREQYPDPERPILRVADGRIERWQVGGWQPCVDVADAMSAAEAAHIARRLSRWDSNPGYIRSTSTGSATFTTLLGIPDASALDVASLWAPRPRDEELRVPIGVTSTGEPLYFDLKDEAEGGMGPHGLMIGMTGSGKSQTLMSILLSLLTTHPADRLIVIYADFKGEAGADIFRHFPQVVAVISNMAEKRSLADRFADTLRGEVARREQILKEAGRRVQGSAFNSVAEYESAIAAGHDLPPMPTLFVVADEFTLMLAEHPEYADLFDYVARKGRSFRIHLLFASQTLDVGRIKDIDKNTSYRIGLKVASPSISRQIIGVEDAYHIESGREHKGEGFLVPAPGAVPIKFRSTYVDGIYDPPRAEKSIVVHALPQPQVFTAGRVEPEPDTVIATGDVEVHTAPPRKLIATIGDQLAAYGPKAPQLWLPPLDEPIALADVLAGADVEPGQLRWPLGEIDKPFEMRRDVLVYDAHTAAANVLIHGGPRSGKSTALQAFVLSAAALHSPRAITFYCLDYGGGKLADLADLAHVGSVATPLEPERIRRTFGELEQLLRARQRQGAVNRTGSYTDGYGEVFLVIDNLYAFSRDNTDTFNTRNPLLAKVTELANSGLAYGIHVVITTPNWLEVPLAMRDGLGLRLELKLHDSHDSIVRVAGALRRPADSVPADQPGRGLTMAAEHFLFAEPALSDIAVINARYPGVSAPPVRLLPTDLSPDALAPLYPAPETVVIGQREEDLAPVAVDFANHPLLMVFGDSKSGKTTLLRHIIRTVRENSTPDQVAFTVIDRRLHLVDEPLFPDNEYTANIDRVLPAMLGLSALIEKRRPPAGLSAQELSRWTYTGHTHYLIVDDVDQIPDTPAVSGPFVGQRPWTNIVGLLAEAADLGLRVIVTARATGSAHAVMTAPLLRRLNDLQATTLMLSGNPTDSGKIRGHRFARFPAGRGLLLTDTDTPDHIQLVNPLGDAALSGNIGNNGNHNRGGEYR
# B1: EccD3 with N-terminal Strep-tag II (natural protein)
# chain: MSENTVMPIVRVAVLAAGDDGGRLTEMALPSELPLREILPAVQRIVQPARENDGAADPAAAPNPVRLSLAPIGGAPFSLDATLDTVGVVDGDLLALQAVPSGPPAPRIVEDIADAAVIFSEARRRQWGPTHIARGAALALIGLILVGTGLSVAHRVITGDLLGQFIVSGIALATVIAALAVRNRSAVLATSLAVTALVPVAAAFALGVPGDFGAPNVLLAAAGVAAWSLISMAGSPDDRGIAVFTATAVTGVGVLLVAGAASLWVISSDVIGCALVLLGLIVTVQAAQLSAMWARFPLPVIPAPGDPTPAARPLSVLADLPRRVRVSQAHQTGVIAAGVLLGVAGSVALVSSANASPWAWYIVVAAAAGAALRARVWDSAACKAWLLGHSYLLAVALLVAFVIGDRYQAALWALAALAVLVLVWIVAALNPKIASPDTYSLPMRRMVGFLATGLDASLIPVMALLVGLFSLVLDR
# B2: EccD3 (untagged, from the ESX-3 gene cluster plasmid pMyNT:ESX-3) (natural protein)
# chain: B1 chain
# B3: EccE3 (natural protein)
# chain: MTARIALASLFVVAAVLAQPWQTTTQRWVLGVSIAAVIVLLAWWKGMFLTTRIGRALAMVRRNRAEDTVETDAHRATVVLRVDPAAPAQLPVVVGYLDRYGITCDKVRITHRDAGGTRRSWISLTVDAVDNLAALQARSARIPLQDTTEVVGRRLADHLREQGWTVTVVEGVDTPLPVSGKETWRGVADDAGVVAAYRVKVDDRLDEVLAEIGHLPAEETWTALEFTGSPAEPLLTVCAAVRTSDRPAAKAPLAGLTPARGRHRPALAALNPLSTERLDGTAVPLPAVVRTSVKGSVEHEAAQEAGHPA
# B4: EccB3 (natural protein)
# chain: MTGPVNPDDRRSFSSRTPVNENPDGVQYRRGFVTRHQVSGWRFVMRRIASGVALHDTRMLVDPLRTQSRAVLTGALILVTGLVGCFIFSLFRPGGVPGNNAILADRSTSALYVRVGEQLHPVLNLTSARLISGSPDNPTMVKTSEIDKFPRGNLLGIPGAPERMVQNAATDAEWTVCDAVGGANPGVTVIAGPLGADGERAAPLPPDHAVLVHSDAEPNPGDWLLWDGKRSPIDLADRAVTDALGLGGQALAPRPIAAGLFNAVPAAPALTAPVIPDAGAAPQFELSLPVPVGAVVVAYDADNTARYYAVLSDGLQPISPVLAAILRNTDSHGFAQPPRLGPDEVARTPMSRGLDTSAYPDNPVTLVEASAHPVTCAHWTKPSDAAESSLSVLSGAVLPLAEGLHTVDLVGAGAGGAANRVALTPGTGYFVQTVGAEPGSPTAGSMFWVSDTGVRYGIDTAEDDKVVAALGLSTSPLPVPWSVLSQFAAGPALSRGDALVAHDAVSTNPNSARMEASR
# Legend:
# [1] = molecular target: EccB3:EccC3:EccD3 subcomplex (Mycobacterium smegmatis) (UniProt A0QQ39); assay: SEC
# [2] = molecular target: ESX-3 core complex protomer EccB3:EccC3:EccD3:EccE3, from pMyNT:ESX-3 (whole gene cluster) (Mycobacterium smegmatis) (UniProt A0QQ39); assay: SEC
# [3] = molecular target: ESX-3 core complex protomer EccB3:EccC3:EccD3:EccE3 (1:1:2:1), from pMyNT:Mini (Mycobacterium smegmatis) (UniProt A0QQ39); assay: cryo-EM structure
# SEC-MALS = molecular target: the molecule itself; assay: SEC-MALS
# [4] = molecular target: T1, EccC3 with C-terminal His-tag; assay: densitometry of SDS-PAGE bands
# cryo-EM structure = molecular target: the molecule itself; assay: cryo-EM structure
molecule,measurement,setting,value
EccB3:EccC3:EccD3 subcomplex (from UniProt A0QQ39;A0QQ40;A0QQ46),stoichiometry N,[1],2
"ESX-3 core complex protomer EccB3:EccC3:EccD3:EccE3, from pMyNT:ESX-3 (whole gene cluster) (from UniProt A0QQ39;A0QQ40;A0QQ46;A0QQ48)",stoichiometry N,[2],2
"ESX-3 core complex protomer EccB3:EccC3:EccD3:EccE3 (1:1:2:1), from pMyNT:Mini (from UniProt A0QQ39;A0QQ40;A0QQ46;A0QQ48)",stoichiometry N,[3],2
B1,stoichiometry N,SEC-MALS,2
same,stoichiometry N,[4],2
B2,stoichiometry N,[4],2
B3,stoichiometry N,[4],1
B4,stoichiometry N,cryo-EM structure,2
same,stoichiometry N,[4],1
